A short description of this data set: Storage of hirudin in water, chromatographic analysis (Mono Q / ProPac). The format is physicochemical. To be noted: FIG. 2. The protocol:
MONO Q METHOD: The stability of hirudin can be analysed by FPLC ([…] protein liquid chromatography) using a Mono-Q column (10 μm particle size, 5.0×50 mm, purchased from Pharmacia). The method was developed by Ciba-Geigy, Basel. Solvent A is 50 mM HCOONH4 in H2 O pH 4.5, and solvent B is 50 mM HCOONH4 in H2 O , pH 3.5. The elution is performed at room temperature (22° C.) using a flow rate of 1.4 ml/min. The binary elution for the first 5 min is at constant flow of 20% B, followed by a linear gradient from 20% B to 75% B over 10 minutes, and 2 minutes at 100% B after which the column is equilibrated for 2 min at the starting conditions of 20% B.
PROPAC METHOD: A recently published method for hirudin analysis can also be used [Tuong, A., Maftouh, M., Ponthus, C., Whitechurch, O., Roitsch, C., and Picard, C. (1992) "Characterisation of the Deamidated Forms of Recombinant Hirudin" Biochemistry 31, 8291-8299]. In this method a ProPac PAl anion-exchange column (250×4 mm i.d.) from Dionex is used. Solvent A is 20 mM Tris-HCl, pH 7.0 and solvent B is 0.5M NaCL in A. Isocrastic elution for 5 min at 28% is followed by a linear gradient from 28%B to 54%B over 60 min at a flow rate of 1.3 ml/mim.
The two peaks which elute in the front of the main peak (FIG. 1) are referred to as Q4 and Q5 peaks, respectively. […] The exact nature of the products which produce those extra peaks is not known.

On to hirudin, for which the “change of chromatogram on storage in water” value is “increase of the Q4 and Q5 peaks with time”.

These data come from patent US5472938A, “Pharmaceutical depot compositions containing hirudin” (Ciba-Geigy Corporation, priority 1993, dated 1995).
